Laboratory results as given in patent US20120003668A1, “HIGH RESOLUTION COMPLEX STRUCTURE AND ALLOSTERIC EFFECTS OF LOW MOLECULAR WEIGHT ACTIVATORS ON THE PROTEIN KINASE PDK1” (UNIVERSITAET DES SAARLANDES, priority 2008, published 2012).
Positions count from the first letter of the chain named.

Assays:
[1] = molecular target: T1, PDK1 50-359 [Y288G;Q292A] (Homo sapiens, UniProt O15530, Q292A/Y288G); test: Amide 1H/2H exchange and mass spectrometry
T1 sequence (O15530 with tags, fused parts or gaps Y288G/Q292A): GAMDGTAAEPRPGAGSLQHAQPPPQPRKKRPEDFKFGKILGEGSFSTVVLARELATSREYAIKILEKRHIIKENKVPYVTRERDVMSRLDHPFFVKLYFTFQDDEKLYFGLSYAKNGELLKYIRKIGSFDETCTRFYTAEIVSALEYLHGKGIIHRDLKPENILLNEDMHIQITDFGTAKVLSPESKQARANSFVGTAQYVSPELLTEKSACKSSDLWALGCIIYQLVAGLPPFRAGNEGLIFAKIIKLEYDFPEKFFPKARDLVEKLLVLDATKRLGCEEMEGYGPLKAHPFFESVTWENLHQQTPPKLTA
Procedure: For local exchange analysis, the labeled proteins were digested with pepsin and the resulting polypeptides analyzed by tandem mass-spectrometry (LC-MS/MS) for their incorporation of deuterium atoms. The graphics represent the number of deuterium atoms incorporated into each polypeptide upon the stated incubation time in deuterated water. […] Over time, amide hydrogen atoms exchanged for deuteriums and the molecular weight of the protein increased. We repeated the ^1H/^2H exchange experiments at four different incubation times: 1, 5, 15 and 45 minutes. […] In the presence of peptide or small compounds, protein and ligand solution were pre-incubated on ice for 50 min before the mixture was diluted into labeling buffer. After the exchange reaction, samples were loaded on a pepsin column for one minute for digestion into peptides and samples quenched at each time point. They were then subjected to liquid chromatography for separation and analyzed by tandem mass-spectrometry (LC-MS/MS) for their incorporation of deuterium atoms. The entire plumbing system was immersed in an ice bath. 61 polypeptides were identified with overlapping regions, covering 80% of PDK1 sequence. As it is not possible to predict the cleavage sites of pepsin in the PDK1 sequence, it was necessary to identify the peptides generated by pepsin digestion for local-exchange analysis.

PDK1[Phe224Trp] = molecular target: T2, PDK1[Phe224Trp] (Homo sapiens, UniProt O15530, F224W); test: Surface plasmon resonance (BiaCore) on biotin-P-HM-S6K chip, Phe224Trp mutant; assay type: binding; conditions: protein pre-incubated with PIFtide
T2 construct: The catalytic domain (CD) of PDK1 50-359 and its mutants Phe224Trp and Thr226Trp were expressed in insect cells and purified; made in house; host or cells: insect cells
T2 sequence (O15530 50-359 F224W): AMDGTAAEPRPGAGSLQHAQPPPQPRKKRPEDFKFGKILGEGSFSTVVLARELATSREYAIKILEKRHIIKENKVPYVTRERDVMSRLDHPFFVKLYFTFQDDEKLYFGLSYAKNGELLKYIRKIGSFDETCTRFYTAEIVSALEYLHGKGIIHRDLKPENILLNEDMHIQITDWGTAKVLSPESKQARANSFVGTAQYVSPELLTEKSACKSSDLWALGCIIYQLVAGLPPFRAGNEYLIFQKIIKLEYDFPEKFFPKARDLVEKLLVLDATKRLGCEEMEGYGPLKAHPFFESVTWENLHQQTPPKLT
Procedure: (§1) Surface Plasmon resonance (BiaCore) and alpha-screen interaction and displacement assays: Binding of GST-PDK1 to a P-HM-polypeptide derived from S6K1 shown in FIG. 6 was analysed by surface plasmon resonance on a BiaCore 3000 system using a streptavidin-coated Sensor chip (SA) and biotin-P-HM-polypeptide, as previously described (Biondi, R. M. et al., Embo. J. 20:4380-4390 (2001). The interaction of His-PDK1 with biotin-PIFtide and the displacement by compounds shown in FIG. 3 was performed using the alpha-screen Ni-Chelate kit (Perkin Elmer) on an Envision 2104 multilabel system (Perkin Elmer).
(§2) BiaCore analysis was performed as described previously (Biondi, R. M. et al., Embo. J. 19:979-988 (2000)). […] Since both mutants were performed on the same construct of PDK1, their mass should be very similar and therefore should also produce 600RU when all biotin-(P)HM-S6K polypeptides on the same chip are bound to the mutant PDK1 proteins. Unfortunately, when mutant PDK1 Phe224Trp and PDK1 Thr226Trp were analysed, the injection of the mutants at concentrations higher than 1.3 μM prompted unspecific effects, therefore making difficult the evaluation. […]

PDK1[Thr226Trp] = molecular target: T3, PDK1[Thr226Trp] (Homo sapiens, UniProt O15530, T226W); test: Surface plasmon resonance (BiaCore) on biotin-P-HM-S6K chip, Thr226Trp mutant; assay type: binding; conditions: protein pre-incubated with PIFtide
T3 construct: The catalytic domain (CD) of PDK1 50-359 and its mutants Phe224Trp and Thr226Trp were expressed in insect cells and purified; made in house; host or cells: insect cells
T3 sequence (O15530 50-359 T226W): T2 sequence (O15530 50-359 F224W) with W175F, T177W
Procedure: as §1, §2

PDK1 catalytic domain = molecular target: T4, PDK1 catalytic domain (Homo sapiens, UniProt O15530); test: TNP-ATP fluorescence probing of the ATP binding site conformation; assay type: biochemical; conditions: 40 μM TNP-ATP, 15 μM PDK1 catalytic domain
T4 construct: The catalytic domain (CD) of PDK1 50-359 and its mutants
T4 sequence (O15530 50-359): T2 sequence (O15530 50-359 F224W) with W175F
Excerpt: Probing the conformation of the ATP binding site in PDK1: The activation of PDK1 by HM-polypeptides and small compounds is due to a change in the conformation of the enzyme. We probed the conformation of the ATP binding site in PDK1 by scanning the steady-state fluorescence of TNP-ATP/PDK1, in the presence or absence of P-HM-polypeptides, PIFtide, or small molecular weight compounds. Data were obtained in a Varian Cary Eclipse spectrofluorometer (excitation λ=479 nm; emission scanning, λ=500-600 nm; excitation slit=10 nm; emission slit=10 nm) at a rate of 200 nm/min, with 150 datapoints/100 nm scanning and 0.3 s averaging time. The incubation was performed at 20° C. in a buffer containing 50 mM Tris pH 7.5, 0.1 mM EDTA, 187 mM NaCl, 40 μM TNP-ATP, 15 μM PDK1 catalytic domain, 1 mM DTT and 1% DMSO. In the absence of PDK1, TNP-ATP produced approximately 1.5 arbitrary units (a.u.) of fluorescence, and the inclusion of PDK1 increased its fluorescence intensity to approximately 3.3 a.u. […] In preliminary tests, inclusion of 2.5 mM MgCl2 in the assay mix produced similar results. Data for each condition are the average of 3 scans.

PDK1 = PDK1 protein kinase activity test with T308tide substrate; assay type: biochemical, human; conditions: T308tide as substrate
Procedure: In brief, PDK1 activity assay was performed at room temperature (22° C.) in a 20 μl mix containing 50 mM Tris pH 7.5, 0.05 mg/ml BSA, 0.1% β-mercaptoethanol, 10 mM MgCl2, 100 μM [γ^32P]ATP (5-50 cpm/pmol), 0.003% Brij, 150 ng PDK1, and T308tide (from 0.1 to 1 mM). […] Experiments were repeated at least twice.

Chain of PDK1 (O15530 51-360 limits assumed): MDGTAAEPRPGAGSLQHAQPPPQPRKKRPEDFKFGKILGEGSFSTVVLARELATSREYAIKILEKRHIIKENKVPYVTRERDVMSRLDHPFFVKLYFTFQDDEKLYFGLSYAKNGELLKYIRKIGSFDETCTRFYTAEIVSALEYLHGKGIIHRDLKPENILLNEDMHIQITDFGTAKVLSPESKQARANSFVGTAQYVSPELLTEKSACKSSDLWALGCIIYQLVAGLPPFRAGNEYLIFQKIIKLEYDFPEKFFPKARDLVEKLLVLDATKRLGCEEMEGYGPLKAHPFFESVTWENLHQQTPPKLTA

For “REPRILSEEEQEMFRDFDYIADWC [PIFtide, polypeptide derived from the C-terminal 24 amino acids of the PDK1 substrate PRK2]”, the “global exchange protection, 2H less incorporated/PDK1 molecule” value ([1]; after 45 minutes, PIFtide 0.625 mM, PS48 500 μM, PS08 250 μM) was 20 ^2H, the “2H less incorporated (protection), peptide 122-134 (α-C-helix)” value ([1]; first time point (1 min)) was “five” and the “displacement by PIFtide of PDK1[Phe224Trp] binding to the chip” value (PDK1[Phe224Trp]) was “displaced”. The “displacement by PIFtide of PDK1[Thr226Trp] binding to the chip” value (PDK1[Thr226Trp]) was “displaced”, the “effect on TNP-ATP fluorescence intensity in the presence of PDK1” value (PDK1 catalytic domain) was “decreased” and the “activation of PDK1” value (PDK1) was “activated”.
